Legend:
[1] = biological target: Pyruvate kinase I from E. coli, PYK-F (E. coli) (UniProt P0AD61); assay: ribosome titration of enzyme activity (direct 1H NMR kinetic assay); 120 nM PYK-F, ribosomes titrated up to 8 uM; change of initial velocity (pyruvate methyl peak) at 2 mM PEP and 4 mM ADP; 10 mM sodium phosphate pH 7.5, 50 mM KCl, 10 mM MgCl2, 10 °C; one site-specific binding model …; saturation not reached
[2] = biological target: Pyruvate kinase I from E. coli, PYK-F (E. coli) (UniProt P0AD61)
[3] = biological target: Pyruvate kinase I from E. coli, PYK-F (E. coli) (UniProt P0AD61); remark: listed apart in the source
[4] = biological target: Pyruvate kinase I from E. coli, PYK-F (E. coli) (UniProt P0AD61); remark: listed apart in the source

- Kd [1]: 10 µM
- kcat of PYK-F (ADP saturation curve) with 2 μM ribosomes against none [2]: 10%
- PYK-F activity (initial velocity, NMR kinetic assay) with 3 μM ribosomes against none [3]: 35%
- decrease in sum of the influx rates of lactate, ethanol and acetate in living E. coli BL21(DE3) (RTPC-NMR), 2x chloramphenicol against none [4]: 32%
Substance: Intact 70S ribosomes from E. coli strain MRE600 (from UniProt P60723 1-201; P0AG55 1-177; P0A7R1 1-149; P0AA10 1-142; P0AG44 1-127; P0AG48 1-103; P61175 1-110; P68919 1-94; P0A7L8 1-85; P0A7M9 1-70; P0AG67 1-557; P0A7V3 1-233; P0A7X3 1-130; P0A7S3 1-124; P0A7U7 1-87) (complex)

Source: PMC12177922, “In Vivo Ribosome-Amplified MetaBOlism, RAMBO, Effect Observed by Real Time Pulse Chase, RTPC, NMR Spectroscopy” (Biochemistry, 2025)
